Measurements from publication PMC3510508, “Rbg1–Tma46 dimer structure reveals new functional domains and their role in polysome recruitment” (Nucleic Acids Research, 2012).
One block for each binder: values may come before it.

Columns and labels:
[1] = molecular target: T1, 6His-tagged full-length Rbg1 (yeast) (UniProt P39729)
T1 sequence: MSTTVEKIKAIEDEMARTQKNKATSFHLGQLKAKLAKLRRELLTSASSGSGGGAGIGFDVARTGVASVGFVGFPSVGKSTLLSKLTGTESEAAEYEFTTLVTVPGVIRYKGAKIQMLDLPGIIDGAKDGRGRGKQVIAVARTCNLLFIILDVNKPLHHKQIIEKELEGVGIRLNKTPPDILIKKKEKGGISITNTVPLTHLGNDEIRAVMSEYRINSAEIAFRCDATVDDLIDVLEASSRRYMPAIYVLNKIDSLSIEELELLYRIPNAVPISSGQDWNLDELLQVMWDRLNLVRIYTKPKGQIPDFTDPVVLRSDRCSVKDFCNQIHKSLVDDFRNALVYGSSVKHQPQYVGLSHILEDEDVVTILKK

[2] = substrate: Nc1nc2c(ncn2[C@@H]2O[C@H](COP(=O)(O)OP(=O)(O)OP(=O)(O)O)[C@@H](O)[C@H]2O)c(=O)[nH]1; assay: malachite green phosphate release; format: biochemical, Saccharomyces cerevisiae; details: 100 mM KCl, 50 mM Tris pH 7.5, 5 mM MgCl2, 37°C, 1 h, 20 μM protein
Source text: malachite green phosphate release on Rbg1_1–294–Tma46_205–345 (ΔTGS)

[3] = substrate: Nc1nc2c(ncn2[C@@H]2O[C@H](COP(=O)(O)OP(=O)(O)OP(=O)(O)O)[C@@H](O)[C@H]2O)c(=O)[nH]1; assay: malachite green phosphate release; format: biochemical, Saccharomyces cerevisiae; details: 100 mM KCl, 50 mM Tris pH 7.5, 5 mM MgCl2, 37°C, 1 h, 20 μM protein; remark: listed apart in the source
Source text: malachite green phosphate release on Rbg1fl–Tma46_205–345

[4] = substrate: Nc1nc2c(ncn2[C@@H]2O[C@H](COP(=O)(O)OP(=O)(O)OP(=O)(O)O)[C@@H](O)[C@H]2O)c(=O)[nH]1; assay: malachite green phosphate release; format: biochemical, Saccharomyces cerevisiae; details: 100 mM KCl, 50 mM Tris pH 7.5, 5 mM MgCl2, 37°C, 1 h, 20 μM protein; remark: listed apart in the source
Source text: malachite green phosphate release on Rbg1fl–Tma46_239–345 (Tma46Δα1)

[5] = substrate: Nc1nc2c(ncn2[C@@H]2O[C@H](COP(=O)(O)OP(=O)(O)OP(=O)(O)O)[C@@H](O)[C@H]2O)c(=O)[nH]1; assay: malachite green phosphate release; format: biochemical, Saccharomyces cerevisiae; details: 100 mM KCl, 50 mM Tris pH 7.5, 5 mM MgCl2, 37°C, 1 h, 20 μM protein; remark: listed apart in the source

GTP hydrolysis (Malachite green), Vmax (nmol min^−1 mg^−1) [1]: 0.0345
GTP hydrolysis (Malachite green), kcat [1]: 0.002 min⁻¹
B1: Tma46_(205–345 W249A K250E) (domain or fragment)
chain: EQKRLERESLEKQPKITLEEFIETERGKLDKSKLTPITIANFAQAEKDHVIAKINAEKKLSSKRKPTGREIILKMSAENKSFETDNADMPDDVTQGSAWDLTEFTDALKKADHQDDGGIKDYGDGSNPTFDIKKANSATLA

GTP hydrolysis (Malachite green), Vmax (nmol min^−1 mg^−1) [1]: 0.0288
GTP hydrolysis (Malachite green), kcat [1]: 0.0017 min⁻¹
B2: Tma46_(205–345 I241A, F246A) (domain or fragment)
chain: EQKRLERESLEKQPKITLEEFIETERGKLDKSKLTPATIANAAQWKKDHVIAKINAEKKLSSKRKPTGREIILKMSAENKSFETDNADMPDDVTQGSAWDLTEFTDALKKADHQDDGGIKDYGDGSNPTFDIKKANSATLA

B3: Rbg1_1–294–Tma46_205–345 (ΔTGS) (Saccharomyces cerevisiae S288C) (protein)
chain: MSTTVEKIKAIEDEMARTQKNKATSFHLGQLKAKLAKLRRELLTSASSGSGGGAGIGFDVARTGVASVGFVGFPSVGKSTLLSKLTGTESEAAEYEFTTLVTVPGVIRYKGAKIQMLDLPGIIDGAKDGRGRGKQVIAVARTCNLLFIILDVNKPLHHKQIIEKELEGVGIRLNKTPPDILIKKKEKGGISITNTVPLTHLGNDEIRAVMSEYRINSAEIAFRCDATVDDLIDVLEASSRRYMPAIYVLNKIDSLSIEELELLYRIPNAVPISSGQDWNLDELLQVMWDRLNLV
notes: 6His-tagged Rbg1 lacking TGS domain (residues 1-294), co-expressed in E. coli with Tma46 205-345; with Translation machinery-associated protein 46
Km [2]: 426.3 ± 165 µM
Vmax [2]: 1.66e-05 µmol/min/mg
kcat [2]: 1.33e-05 s⁻¹

B4: Rbg1fl–Tma46_205–345 (Saccharomyces cerevisiae S288C) (protein)
chain: MSTTVEKIKAIEDEMARTQKNKATSFHLGQLKAKLAKLRRELLTSASSGSGGGAGIGFDVARTGVASVGFVGFPSVGKSTLLSKLTGTESEAAEYEFTTLVTVPGVIRYKGAKIQMLDLPGIIDGAKDGRGRGKQVIAVARTCNLLFIILDVNKPLHHKQIIEKELEGVGIRLNKTPPDILIKKKEKGGISITNTVPLTHLGNDEIRAVMSEYRINSAEIAFRCDATVDDLIDVLEASSRRYMPAIYVLNKIDSLSIEELELLYRIPNAVPISSGQDWNLDELLQVMWDRLNLVRIYTKPKGQIPDFTDPVVLRSDRCSVKDFCNQIHKSLVDDFRNALVYGSSVKHQPQYVGLSHILEDEDVVTILKK
notes: 6His-tagged full-length Rbg1 (N-terminal tag) co-expressed in E. coli with Tma46 residues 205-345; heterodimer; with Translation machinery-associated protein 46
Km [3]: 304.1 ± 32.5 µM
Vmax [3]: 5.93e-05 µmol/min/mg
kcat [3]: 5.67e-05 s⁻¹

B5: Rbg1fl–Tma46_239–345 (Tma46Δα1) (Saccharomyces cerevisiae S288C) (protein)
chain: MSTTVEKIKAIEDEMARTQKNKATSFHLGQLKAKLAKLRRELLTSASSGSGGGAGIGFDVARTGVASVGFVGFPSVGKSTLLSKLTGTESEAAEYEFTTLVTVPGVIRYKGAKIQMLDLPGIIDGAKDGRGRGKQVIAVARTCNLLFIILDVNKPLHHKQIIEKELEGVGIRLNKTPPDILIKKKEKGGISITNTVPLTHLGNDEIRAVMSEYRINSAEIAFRCDATVDDLIDVLEASSRRYMPAIYVLNKIDSLSIEELELLYRIPNAVPISSGQDWNLDELLQVMWDRLNLVRIYTKPKGQIPDFTDPVVLRSDRCSVKDFCNQIHKSLVDDFRNALVYGSSVKHQPQYVGLSHILEDEDVVTILKK
notes: 6His-tagged full-length Rbg1 with Tma46 residues 239-345 (lacks helix α1), expressed in E. coli; with Translation machinery-associated protein 46
Km [4]: 191.2 ± 26.6 µM
Vmax [4]: 3.7e-05 µmol/min/mg
kcat [4]: 3.33e-05 s⁻¹

B6: Rbg1Δ175–243+Gly–Tma46_205–345 (ΔS5D2L) (Saccharomyces cerevisiae S288C; DEL175-243/INS174G) (protein)
chain: MSTTVEKIKAIEDEMARTQKNKATSFHLGQLKAKLAKLRRELLTSASSGSGGGAGIGFDVARTGVASVGFVGFPSVGKSTLLSKLTGTESEAAEYEFTTLVTVPGVIRYKGAKIQMLDLPGIIDGAKDGRGRGKQVIAVARTCNLLFIILDVNKPLHHKQIIEKELEGVGIRLNGPAIYVLNKIDSLSIEELELLYRIPNAVPISSGQDWNLDELLQVMWDRLNLVRIYTKPKGQIPDFTDPVVLRSDRCSVKDFCNQIHKSLVDDFRNALVYGSSVKHQPQYVGLSHILEDEDVVTILKK
notes: 6His-tagged Rbg1 with S5D2L domain (175-243) replaced by one Gly, co-expressed in E. coli with Tma46 205-345; with Translation machinery-associated protein 46
Km [5]: 221.5 ± 159.2 µM
Vmax [5]: 1.57e-05 µmol/min/mg
kcat [5]: 1e-05 s⁻¹
